We go through 1 molecule from publication PMC3586674.

The target in the data set is T1, ECudA (Entamoeba histolytica, UniProt Q24859 1-283).
T1 sequence: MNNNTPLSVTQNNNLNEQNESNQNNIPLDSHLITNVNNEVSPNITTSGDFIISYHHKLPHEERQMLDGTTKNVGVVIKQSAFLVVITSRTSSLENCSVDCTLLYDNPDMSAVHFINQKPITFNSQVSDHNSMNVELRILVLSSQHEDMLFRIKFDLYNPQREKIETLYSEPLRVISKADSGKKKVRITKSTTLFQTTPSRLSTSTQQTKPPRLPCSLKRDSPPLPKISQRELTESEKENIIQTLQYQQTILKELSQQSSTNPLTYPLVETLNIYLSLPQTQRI
The experiment in a line: competition.

B1: WT 20-mer (dsDNA)
DNA 1: CACTGTGAGAATTTTCTATT
DNA 2: AATAGAAAATTCTCACAGTG
Regarding B1, the binding result is listed as “binds”.
